Data: the supplement of paper PMC9170038

System: K4 kissing-loop RNA reporter
Assay: apparent KD of K4 kissing-loop reporter; higher = weaker reporter binding
Details: Eterna round: R107; input ligand: theophylline 20 uM
Procedure: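 RNA-MaP round R107: designed RNA switches with theophylline, tryptophan, arginine or FMN aptamers are transcribed on-chip within common flanks. They are titrated with a labelled K4 kissing-loop RNA reporter in RNA-MaP buffer (100 mM Tris pH 7.5, 80 mM KCl, 4 mM MgCl2), without ligand or with the indicated ligand. Median apparent KD per design.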
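Also: bound reporter read as fluorescence of individual clusters on recovered sequencing chips by microscopy, with normalized cluster intensities fitted with a binding model.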

Row | Sequence | apparent KD of K4 kissing-loop reporter [nM]
1 | GGUAGCAUGGCGGCCGCCACUUUUUUAGAUACCUACACAGAAAGCAGUGAUGUUGCUUGGUGGUAAAGGACCGGGCCAUGCUACC | 137
2 | AGAAUAAUAAAUUUGGAGUGAUGUUCCGGACGAGGACCGGUACGGCCGCCACUCGAAAGCAGUCUGCGAAAGCAGACUGCAAGGA [Tesla SS Tryp A 1] | 349
3 | GGAUAGGACGGAGGAUAUGGUAGUGAUGUUACCAAACUGGUUAAACAUGUCAGAAAACUGGCAUGACCAGAAGGUUGUCCUAUCG [FmnBX 27 G10+U75] | 44.4
4 | UAUAUAUGAUGUGAUACCAGUGAAAAGCCAGUGAUGUUGGUAGAACUGGUAUAUAAAUAACACCCUUGGCAGCACAAUCACGUAU [whbob_Ex_Theo_B_sa96] | 191
5 | CUGUACAUCUCGGCCGCCACUGACAUGAGUGAUGUUCAUGUACAUGAGUGAUGUUCAUGUUCGGCCAGGACCGGGAGGUGUGCAG [KL-SSTryp-B2 #analogue #double KL] | 271
6 | UAAUUUAUGUCUUUAAUUUUAUAAUCAGAUACCAGUGAUUUAUGACACCCUUGGCAGCUGUAUUGAGUGAUGUUCUUAUACUUAA [JR_Nu_ExcTheophyA_Sub022] | 236
7 | UUCUCUCAGGCACGCGAGUGAUGUUCGCGGCGAGGACCGGUACGGCCGCCACUCGCGCCUGAGAGAGGUUAUCAAAGAUAGCCUU [whbob_SS_tryp_A] | 186
8 | GGUGGCUUACAAAGCUCAGUGAUGUUGAGCCGAGGACCGGUACGGCCGCCACUCGUUUGCCAUUCACUACAGUUACAAGCACUAG [theeternabot_exclusion_KL_Trp_A_2] | 282
9 | UUUUAUUAAUUCUUCUAGUGAUGUUAGAUACGAGGACCGGUACGGCCGCCACUCGCUUAUUGGUUUAUAAAUUUUAUAUUAUUUA [JR_SSTryptoA_Sub016] | 294
10 | CCCUCACGAGUGAUGUUCGUAGGGUACAGUCAGGAUAUCAUGCGGUUGAGAAGGGACAGGAAGGGCGGCGGCGGGUUGCUCACCG [Atera] | 204
11 | CGGUACGUCGCAGGAUAUGGAUUCUGGAGUGAUGUUUCAGAGGCAUGCGGAAAACGCAUGCCGACUCCAGAAGGGCGACGUACCG | 24
12 | GGAUAGGAUAGAGGAUAUGGAAAACACAGAAAUGACUUGUUGUGUUUAUCCAUAGGGAGUGAUGUUCCAGAAGGCUGUCCUAUCG [MatMod 21 - Jieux - Exclusion - FMN B] | 198
13 | GUCAUGCGUUCAGGAUAUGGACCAAUUUAUAUUGCUUAUGCUGUGCCCUGUAUGGCAGUGAUGUUGCCAGAAGGGAGGGCAUGCA [Erbionvean] | 111
14 | AGGAUCACGUCAGUGAUGUUGACAAGAGAUACCAGAGACGAAAGUCUCCCUUGGCAGCUCAUUGUGAUCCGUGACAAAGGUCACA [Omei KL hio A SS C v2] | 593
15 | GCGCGGGUCAGUGAUGUUGACCCUCGGAGACGAGGACCGGUACGGCCGCCACUCGUCCGCGCAGCUGAGGCAAAAGCCUCGGCAA [Omei KL Tryp A SS B v5] | 131
16 | AUUAAUAACUGAGGAUAUCGUUUUACUGUAGUGAUGUUACAGAAAAUGCACAUUAUAAUUUCUAUUCGAGAAGGCAGAAUAAUUA [JR_ExcFMNB_Sub013] | 74.1
17 | ACUAUCAUUACGCAUGGAGUGAUGUUUCAGCGAGGACCGGUACGGCCGCCACUCGUUACGUGGUUAGAGCCAAUGUUCGAGAAGC [theeternabot_exclusion_KL_Trp_A_39] | 1270
18 | ACACAGAGUUGCCGAGUGAUGUUCGGCUUACGAGGACCGGUACGGCCGCCACUCGUUACUCUGUGUUUUGGACACCAAGGCGUAG [Edvemaquan] | 497
19 | UCCUGCUGUCAGCCACGAAAGUGGAUUGAUACCAGAGUCGAAAGACUCCCUUGGCAGCGAGUGAUGUUCGCAGCAGGUAAAUAAA [MatMod 3 - Jieux - Exclusion - Theophylline A] | 356
20 | UUAUAACCCAGUGAUGUUGGGUAGCGGCCACGAGGACCGGUACGGCCGCCACUCGAGGUUUGACCAGUGAUGUUGGACUAUUUGG [Same state Tryptophan A GF 5] | 147
21 | AGUGACGAGUGAUGUUCGUGAACACUGGAUACCAGCAGUCUUAUCUGCCCUUGGCAGCCAACGGGAACCGAAUGUUAAGACCUGU [theeternabot_exclusion_KL_Theo_A_4] | 149
22 | CCCGUGGGUUUGAGAGGGCUUGUGGGAAGUAAGGAUAUUUAGGGAGAAAGAAGGUACUAUAGAAUAUAGUGAUGUUAUAUAUGGG [#06 K4 FMN A Same State] | 126
23 | CAUACGCAUGGAGGAUAUGAGAUUUCUCAUAUUAUUUAUUAUUCUCAGUGAUGUUGGGAUUUAAACUCAGAAGGCCAUGUGUAUG [Ex FMN B 8] | 244
24 | AUAUUUAUUUAGUCACUUUUCAUAUUAUGUCAGGAUAUCGUAUUUUCGAGAAGGGACUCAUGGUAGUGAUGUUACCUAUUUCUCA [#03 K4 FMN A Exclusion] | 404
25 | GCUACUGCUGAAGGAUAUAUCAAUAGAGUGAUGUUCUAUGUCGGUAGCCCGAAAGGGCUACCGACGAUAGAAGGUCAGCAGUAGC | 1070
26 | GCGCGCGGCGGAGGAUAUAGCCGGUGAUCCGAGAAAGUGAGUGAUGUUUACGGAGUUGAGGAUAUGUUAGAAGGCCGCCGCGCGC [abcdefghijklmnopqrstuvwx] | 792
27 | UGGGUGUAGUGAUGUUAUAUAGAGAGUGAUACCAGCUUAGAGAGAAGCCCUUGGCAGCAUAGAAGAGUAUCAUUGGAGGAGGAGG [ExTheophyl.Ay] | 668
